Source: PMC2987827

Columns and labels:
Test in all cases: cross-linking; 293T cells coexpressing FLAG- and HA-tagged Gag and V1B-MS2 viral RNA treated with 1 mM EGS, 30 min, room temperature; membrane flotation; cytoplasmic fraction (10th fraction) analysed by anti-FLAG western blot
[1] = molecular target: HIV-1 Gag-delCTD, FLAG- and HA-tagged (lacking the C-terminal domain of capsid) (HIV-1)
[2] = molecular target: HIV-1 Gag, FLAG- and HA-tagged (wild type) (HIV-1)
[3] = molecular target: HIV-1 G2A-Gag, FLAG- and HA-tagged (HIV-1)

## HIV-1 Gag-delCTD, FLAG- and HA-tagged (lacking the C-terminal domain of capsid) (natural protein)
[1]
  stoichiometry N: 2

## HIV-1 Gag, FLAG- and HA-tagged (wild type) (natural protein)
[2]
  stoichiometry N: 2

## HIV-1 G2A-Gag, FLAG- and HA-tagged (natural protein)
[3]
  stoichiometry N: 2
